What was measured:
Assay in all cases: IEDB peptide-MHC binding, purified MHC/competitive/radioactivity; filed as Kd, often an IC50 or EC50 that approximates it; ≥ and ≤ were set here for values at or beyond the usual limits of such assays
HLA-A*02:02 = molecular target: HLA-A*02:02
HLA-A*02:03 = molecular target: HLA-A*02:03
HLA-A*02:06 = molecular target: HLA-A*02:06
HLA-A*03:01 = molecular target: HLA-A*03:01
HLA-A*11:01 = molecular target: HLA-A*11:01
HLA-A*31:01 = molecular target: HLA-A*31:01
HLA-A*33:01 = molecular target: HLA-A*33:01
HLA-A*68:01 = molecular target: HLA-A*68:01
[1] = source organism: Vaccinia virus WR
[2] = source organism: SARS coronavirus Tor2
[3] = source organism: Lymphocytic choriomeningitis virus (strain Armstrong)
[4] = source organism: Mammarenavirus brazilense

Row | Sequence | Kd (HLA-A*02:02; [1]) | Kd (HLA-A*02:03; [1]) | Kd (HLA-A*02:06; [1]) | Kd (HLA-A*03:01; [1]) | Kd (HLA-A*11:01; [1]) | Kd (HLA-A*31:01; [1]) | Kd (HLA-A*33:01; [1]) | Kd (HLA-A*68:01; [1]) | also measured
1 | EVERLMELPV | 2460 nM | 1430 nM | 3630 nM | – | – | – | – | – | –
2 | STKADAVVA | 8190 nM | 4950 nM | 16200 nM | – | – | – | – | – | –
3 | NTTTFITVLT | 1960 nM | 596 nM | 600 nM | – | – | – | – | – | –
4 | KLIEYSDFA | – | – | – | – | – | – | – | – | Kd (HLA-A*02:02; [2]): 0.0948 nM; Kd (HLA-A*02:03; [2]): 0.534 nM; Kd (HLA-A*02:06; [2]): 0.705 nM
5 | IIYSKAGNI | 9760 nM | 12.6 nM | 13700 nM | – | – | – | – | – | –
6 | PMVIENGILK | – | – | – | 10200 nM | 216 nM | ≥ 24100 nM | ≥ 70000 nM | 292 nM | –
7 | VVIGLLFMI | – | – | – | – | – | – | – | – | Kd (HLA-A*02:06; source organism: Dengue virus 1 Brazil/97-11/1997): 5.61 nM
8 | RTWKVLSIM | 19100 nM | 2630 nM | ≥ 34000 nM | – | – | – | – | – | –
9 | KQYDSTDFKM | 8.38 nM | 3270 nM | 107 nM | – | – | – | – | – | –
10 | QLLKILDNL | 227 nM | 319 nM | 135 nM | – | – | – | – | – | –
11 | VIENGILKK | – | – | – | 438 nM | 29.6 nM | 12900 nM | ≥ 77700 nM | 1830 nM | –
12 | YTYDRVDIY | – | – | – | 741 nM | 0.341 nM | 9370 nM | ≥ 36600 nM | 1.91 nM | –
13 | ESKAKQLCY | – | – | – | ≥ 78000 nM | ≥ 77900 nM | ≥ 77900 nM | ≥ 77700 nM | 15900 nM | –
14 | TTNNLLEQL | 122 nM | 1420 nM | 3040 nM | – | – | – | – | – | –
15 | RVPRNLTLSK | – | – | – | – | – | – | – | – | Kd (HLA-A*03:01; [2]): 12.4 nM; Kd (HLA-A*11:01; [2]): 8.33 nM; Kd (HLA-A*31:01; [2]): 767 nM; Kd (HLA-A*33:01; [2]): ≥ 70000 nM; Kd (HLA-A*68:01; [2]): 2100 nM
16 | YLINPNILY | – | – | – | 1520 nM | 376 nM | ≥ 77900 nM | ≥ 45100 nM | 3240 nM | –
17 | CSKHMDARY | – | – | – | 19100 nM | 10100 nM | ≥ 45200 nM | ≥ 77700 nM | 18700 nM | –
18 | LNVSYLCHL | – | – | – | – | – | – | – | – | Kd (HLA-A*02:02; [3]): 296 nM; Kd (HLA-A*02:03; [3]): 7100 nM; Kd (HLA-A*02:06; [3]): 13600 nM
19 | PVLKAMHDK | – | – | – | 645 nM | 879 nM | ≥ 67400 nM | ≥ 77700 nM | 2520 nM | –
20 | ILEYLYIMRV | 73.5 nM | 83.2 nM | 134 nM | – | – | – | – | – | –

Row | Sequence | Kd (HLA-A*02:02; [1]) | Kd (HLA-A*02:03; [1]) | Kd (HLA-A*02:06; [1]) | Kd (HLA-A*03:01; [1]) | Kd (HLA-A*11:01; [1]) | Kd (HLA-A*31:01; [1]) | Kd (HLA-A*33:01; [1]) | Kd (HLA-A*68:01; [1]) | also measured
21 | IVDSMIIGHI | 507 nM | 208 nM | 561 nM | – | – | – | – | – | –
22 | DVDTSASEIK | – | – | – | 4430 nM | 2630 nM | ≥ 27100 nM | 18800 nM | 135 nM | –
23 | IFNEDTSYY | – | – | – | 6000 nM | 6890 nM | ≥ 77900 nM | ≥ 77700 nM | ≥ 20000 nM | –
24 | MSPALFFTFL | – | – | – | – | – | – | – | – | Kd (HLA-A*02:02; [4]): 546 nM; Kd (HLA-A*02:03; [4]): 7630 nM; Kd (HLA-A*02:06; [4]): 834 nM
25 | VTKSSSWKDV | ≥ 70000 nM | ≥ 41900 nM | ≥ 69800 nM | – | – | – | – | – | –
26 | SILSLETVK | – | – | – | 24.9 nM | 4.15 nM | 2610 nM | 18500 nM | 515 nM | –
27 | FAEESYTYYY | – | – | – | ≥ 26300 nM | 916 nM | ≥ 70000 nM | ≥ 70000 nM | 543 nM | –
28 | DTEDIVSDSK | – | – | – | 7660 nM | 1660 nM | 15800 nM | 3160 nM | 201 nM | –
29 | SALMTLDDLA | 210 nM | 2320 nM | 193 nM | – | – | – | – | – | –
30 | AVSVYGAIT | 11400 nM | 9610 nM | 14300 nM | – | – | – | – | – | –
31 | DAKNDDWKKY | – | – | – | ≥ 70100 nM | ≥ 69800 nM | ≥ 70000 nM | ≥ 70000 nM | ≥ 70200 nM | –
32 | NITRLEVIGL | 907 nM | 95.1 nM | 197 nM | – | – | – | – | – | –
33 | IVSLCPTKK | – | – | – | 359 nM | 54.1 nM | 1610 nM | 7690 nM | 912 nM | –
34 | KSIIIPFIAY | – | – | – | 968 nM | 249 nM | 1370 nM | ≥ 31700 nM | 17600 nM | –
35 | TAKVIKLVK | – | – | – | ≥ 52300 nM | 985 nM | 19900 nM | ≥ 77700 nM | 4910 nM | –
36 | IILARNEEGR | – | – | – | 9520 nM | ≥ 24300 nM | 71.2 nM | 344 nM | 1160 nM | –
37 | SSTCSAVTDR | – | – | – | 11400 nM | 173 nM | 123 nM | 708 nM | 87.4 nM | –
38 | VIRLLIWAY | – | – | – | 12900 nM | 1930 nM | 1220 nM | 12400 nM | 5930 nM | –
39 | GLLDSIKMIY | – | – | – | 45.9 nM | 3410 nM | 1540 nM | 2910 nM | 818 nM | –

Reference: the Immune Epitope Database (IEDB)
